The values below are quoted from earlier work in article PMC10412679.

This data set addresses CD47 (Homo sapiens) (UniProt Q08722).

As for magrolimab, the Kd was 8 nM.

One may read the Kd as a measure of binding affinity in units of concentration.
